The record followed here is the supplement of paper PMC10567573.

Sequences and labels used below:
B1: PTPLAD1 (parent)
chain: YSFYMLTCIDMDWKVLTWLRYTLW
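Further: lentivirally expressed fusions sorted by FACS into six bins by GFP to DsRed ratio, PSI derived from sequencing read proportions per bin multiplied by bin number.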

In the data set the parent is B1. The data set can be described thus: protein stability index of a GFP-peptide fusion (GPS, HEK-293T) (PSI 1-6); higher = more stable. The note with it: c terminus: a fixed tail appended.
YSFYMLECIDMDWKVLTWLRYTLW: the protein stability index was 3.27.
Consider YSFYMLNCIDMDWKVLTWLRYTLW, for which the protein stability index stood at 2.85.
For YSFYMLRCIDMDWKVLTWLRYTLW the value was 2.4; for YSFYMLSCIDMDWKVLTWLRYTLW, 2.16; for YSFYMLFCIDMDWKVLTWLRYTLW, 3.29.
As for YSFYMLVCIDMDWKVLTWLRYTLW, the protein stability index came to 1.27.
On to YSFYMLICIDMDWKVLTWLRYTLW, for which the protein stability index is 2.86.
YSFYMLTNIDMDWKVLTWLRYTLW: the protein stability index was 2.97.
Turning to YSFYMLTEIDMDWKVLTWLRYTLW, the protein stability index came to 2.25.
As for YSFYMLTFIDMDWKVLTWLRYTLW, the protein stability index amounted to 2.48.
With YSFYMLTRIDMDWKVLTWLRYTLW, the protein stability index was 1.42.
In the case of YSFYMLTAIDMDWKVLTWLRYTLW, the protein stability index was determined as 2.9.
For YSFYMLTCIDMDWKVPTWLRYTLW, the protein stability index is 2.32.
As for YSFYMLTCIDMDWKVRTWLRYTLW, the protein stability index is 2.13.
On to YSFYMLTCIDMDWKVLRWLRYTLW, for which the protein stability index was found to be 3.47.
The same measure for YSFYMLTCIDMDWKVLQWLRYTLW: 2.82.
The same measure for YSFYMLTCIDMDWKVLFWLRYTLW: 3.31.
In the case of YSFYMLTCIDMDWKVLHWLRYTLW, the protein stability index was 2.63.
As to YSFYMLTCIDMNWKVLTWLRYTLW, the protein stability index is 2.65.
YSFYMLTCIDMHWKVLTWLRYTLW: the protein stability index is 1.75.
The same measure for YSFYMLTCIDMVWKVLTWLRYTLW: 1.79; for YSFYMLTCIDMRWKVLTWLRYTLW: 2.18; for YSFYMLTCIDMDWKVLTWLRETLW: 3.44.
Take YSFYMLTCIDMDWKVLTWLRLTLW: the protein stability index was 3.2.
As for YSFYMLTCIDMDWKVLTWLRITLW, the protein stability index is 2.98.
In the case of YSFYMLTCIDMDWKVLTWLRNTLW, the protein stability index came to 4.05.
With YSFYMLTCIDMDWKVLTWLRFTLW, the protein stability index was 2.66.
For YSFYMLTCIDMDWKVLTWLRQTLW the value was 2.17.
For YSFYMLTCIDMDWKVLTWLRSTLW the value was 3.16.
With YSFYMLTCIDMDWKVLTWLLYTLW, the protein stability index turned out to be 1.23.
The same measure for YSFYMLTCIDMDWKVLTWLIYTLW: 1.69; for YSFYMLTCIDMDWKVLTWLHYTLW: 4.19.
For YSFCMLTCIDMDWKVLTWLRYTLW the value was 4.29; for YSFEMLTCIDMDWKVLTWLRYTLW, 1.77; for YSFGMLTCIDMDWKVLTWLRYTLW, 2.99.
As to YSFPMLTCIDMDWKVLTWLRYTLW, the protein stability index was determined as 2.72.
The same measure for YSFDMLTCIDMDWKVLTWLRYTLW: 1.99; for YSFKMLTCIDMDWKVLTWLRYTLW: 2.05.
For the variant YSFMMLTCIDMDWKVLTWLRYTLW, the protein stability index was 2.53.
In the case of YSFWMLTCIDMDWKVLTWLRYTLW, the protein stability index is 2.12.
For YSFSMLTCIDMDWKVLTWLRYTLW the value was 1.77; for YSFLMLTCIDMDWKVLTWLRYTLW, 3.13.
YSFAMLTCIDMDWKVLTWLRYTLW: the protein stability index is 2.33.
On to YSFTMLTCIDMDWKVLTWLRYTLW, for which the protein stability index was found to be 1.86.
With YSFYMLTCIDMDWKILTWLRYTLW, the protein stability index was found to be 4.29.
The same measure for YSFYMLTCIDMDWKVLTWPRYTLW: 3.35; for YSFYMLTCIDMDWKVLTWWRYTLW: 2.31; for YSFYMLTCIDMDWKVLTWARYTLW: 2.9.
Turning to YSFYMLTCIDMDWKVLTWKRYTLW, the protein stability index was 2.22.
The same measure for YSFYMLTCIPMDWKVLTWLRYTLW: 1.95; for YSFYMLTCINMDWKVLTWLRYTLW: 2.6; for YSFYMLTCIGMDWKVLTWLRYTLW: 4.97.
As to YSFYMLTCIIMDWKVLTWLRYTLW, the protein stability index was found to be 2.96.
Take YSFYMLTCIDMDMKVLTWLRYTLW: the protein stability index is 1.66.
Consider PSFYMLTCIDMDWKVLTWLRYTLW, for which the protein stability index turned out to be 1.7.
For the variant TSFYMLTCIDMDWKVLTWLRYTLW, the protein stability index was determined as 2.2.
RSFYMLTCIDMDWKVLTWLRYTLW: the protein stability index came out at 1.4.
The same measure for ISFYMLTCIDMDWKVLTWLRYTLW: 3.26; for WSFYMLTCIDMDWKVLTWLRYTLW: 3.32; for ASFYMLTCIDMDWKVLTWLRYTLW: 2.82.
As to YSFYMLTCIDWDWKVLTWLRYTLW, the protein stability index is 2.13.
For the variant YSFYMLTCIDEDWKVLTWLRYTLW, the protein stability index was 2.15.
In the case of YSFYMLTCIDPDWKVLTWLRYTLW, the protein stability index was found to be 2.49.
YSFYMLTCIDRDWKVLTWLRYTLW: the protein stability index was 2.86.
For YSFYMLTCFDMDWKVLTWLRYTLW the value was 2.17; for YSFYMLTCKDMDWKVLTWLRYTLW, 1.66.
As to YSFYMLTCYDMDWKVLTWLRYTLW, the protein stability index was found to be 1.74.
YSFYMLTCTDMDWKVLTWLRYTLW: the protein stability index was determined as 1.25.
For YSFYMLTCGDMDWKVLTWLRYTLW the value was 2.4; for YSFYMLTCNDMDWKVLTWLRYTLW, 2.78; for YSFYRLTCIDMDWKVLTWLRYTLW, 2.7.
Take YSFYNLTCIDMDWKVLTWLRYTLW: the protein stability index came out at 2.21.
For YSFYKLTCIDMDWKVLTWLRYTLW, the protein stability index amounted to 2.41.
Turning to YSFYYLTCIDMDWKVLTWLRYTLW, the protein stability index stood at 3.07.
Consider YSFYHLTCIDMDWKVLTWLRYTLW, for which the protein stability index is 2.54.
Turning to YSFYMLTCIDMDWFVLTWLRYTLW, the protein stability index is 1.85.
Turning to YSFYMLTCIDMDWQVLTWLRYTLW, the protein stability index was determined as 2.03.
For YSFYMLTCIDMDWIVLTWLRYTLW the value was 2.92; for YSFYMLTCIDMDWYVLTWLRYTLW, 2.61.
YSFYMLTCIDMDWKVLTWLRYTTW: the protein stability index was 4.8.
As for YSFYMLTCIDMDWKVLTWLRYTWW, the protein stability index was 2.4.
With YSFYMLTCIDMDWKVLTWLRYTCW, the protein stability index came out at 4.3.
Consider YSFYMLTCIDMDWKVLTWLRYTIW, for which the protein stability index worked out at 2.88.
Regarding YSFYMLTCIDMDWKVLTWLRYQLW, the protein stability index is 2.2.
YSFYMLTCIDMDWKVLTWLRYALW: the protein stability index is 2.78.
Take YSEYMLTCIDMDWKVLTWLRYTLW: the protein stability index was determined as 2.31.
The same measure for YSAYMLTCIDMDWKVLTWLRYTLW: 2.37; for YSIYMLTCIDMDWKVLTWLRYTLW: 3.74.
The same measure for YSGYMLTCIDMDWKVLTWLRYTLW: 2.24; for YSPYMLTCIDMDWKVLTWLRYTLW: 2.51.
The same measure for YSFYMLTCIDMDWKVLTKLRYTLW: 3.24; for YDFYMLTCIDMDWKVLTWLRYTLW: 1.35.
With YAFYMLTCIDMDWKVLTWLRYTLW, the protein stability index was 2.3.
With YPFYMLTCIDMDWKVLTWLRYTLW, the protein stability index turned out to be 2.62.
